For the data set, the system named is Escherichia coli TOP10. As to the kind of experiment: shrunken log2 fold change of peptide-encoding DNA abundance (4.5 h post-induction vs induction); higher = less antimicrobial activity (less host growth inhibition). Particulars: time post-induction: 4.5 h; library: site-saturation at positions 5, 18, 19, 20.
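Further: peptides expressed intracellularly from a pBAD plasmid library in pooled LB shake-flask culture, induced with 0.3% L-arabinose, DNA abundance read by NGS, three biological replicates, DESeq2 with apeglm shrinkage.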

As for RRIRPRPPRLPRPRPRPGVAPRP, the “shrunken log2 fold change” value was found to be 0.27.

As for RRIRRRPPRLPRPRPRPQVPPRP, the “shrunken log2 fold change” value was 0.11.

In the case of RRIRLRPPRLPRPRPRPPWEPRP, the “shrunken log2 fold change” value stood at 0.192.

With RRIRQRPPRLPRPRPRPSEPPRP, the “shrunken log2 fold change” value was 0.0286.

As for RRIRRRPPRLPRPRPRPWDIPRP, the “shrunken log2 fold change” value came out at 0.0194.

RRIRFRPPRLPRPRPRPIANPRP: the “shrunken log2 fold change” value is -0.0564.

As for RRIRCRPPRLPRPRPRPLWNPRP, the “shrunken log2 fold change” value is -0.208.

Consider RRIRVRPPRLPRPRPRPCHEPRP, for which the “shrunken log2 fold change” value is -0.378.

Consider RRIRNRPPRLPRPRPRPDSAPRP, for which the “shrunken log2 fold change” value was -0.126.

Consider RRIRIRPPRLPRPRPRPIRHPRP, for which the “shrunken log2 fold change” value is -0.0741.

On to RRIRCRPPRLPRPRPRPFHFPRP, for which the “shrunken log2 fold change” value was -0.954.

As for RRIRSRPPRLPRPRPRPAVTPRP, the “shrunken log2 fold change” value turned out to be 0.293.

Take RRIRSRPPRLPRPRPRPYEVPRP: the “shrunken log2 fold change” value came to 0.07.

As to RRIRGRPPRLPRPRPRPLAWPRP, the “shrunken log2 fold change” value worked out at 1.43.

For RRIRMRPPRLPRPRPRPISDPRP, the “shrunken log2 fold change” value is 0.0757.

Consider RRIRCRPPRLPRPRPRPYHLPRP, for which the “shrunken log2 fold change” value was -0.0832.

Turning to RRIRRRPPRLPRPRPRPPIMPRP, the “shrunken log2 fold change” value was -0.0528.

For the sequence RRIRIRPPRLPRPRPRPELEPRP, the “shrunken log2 fold change” value turned out to be 0.0281.

In the case of RRIRLRPPRLPRPRPRPVSEPRP, the “shrunken log2 fold change” value was 0.172.

As to RRIRWRPPRLPRPRPRPLFMPRP, the “shrunken log2 fold change” value is -0.286.

Turning to RRIRQRPPRLPRPRPRPGGHPRP, the “shrunken log2 fold change” value is 0.201.

RRIRMRPPRLPRPRPRPWTRPRP: the “shrunken log2 fold change” value was -0.00172.

For the sequence RRIRVRPPRLPRPRPRPTNYPRP, the “shrunken log2 fold change” value was -0.519.

Regarding RRIRIRPPRLPRPRPRPLHAPRP, the “shrunken log2 fold change” value came to 0.00821.

On to RRIRERPPRLPRPRPRPNRQPRP, for which the “shrunken log2 fold change” value turned out to be 0.0895.

For the sequence RRIRRRPPRLPRPRPRPCEVPRP, the “shrunken log2 fold change” value was -0.0207.

On to RRIRYRPPRLPRPRPRPLEDPRP, for which the “shrunken log2 fold change” value was -0.00931.

Turning to RRIRPRPPRLPRPRPRPMRRPRP, the “shrunken log2 fold change” value stood at 0.537.

For the sequence RRIRGRPPRLPRPRPRPLYLPRP, the “shrunken log2 fold change” value is -0.221.

In the case of RRIRTRPPRLPRPRPRPSYHPRP, the “shrunken log2 fold change” value was -0.833.

Consider RRIRHRPPRLPRPRPRPVDHPRP, for which the “shrunken log2 fold change” value was -0.0462.

As to RRIRPRPPRLPRPRPRPCEPPRP, the “shrunken log2 fold change” value was -0.00302.

RRIRERPPRLPRPRPRPAHIPRP: the “shrunken log2 fold change” value was -0.0903.

As for RRIRGRPPRLPRPRPRPNKTPRP, the “shrunken log2 fold change” value was -0.0264.

For the sequence RRIRERPPRLPRPRPRPQGKPRP, the “shrunken log2 fold change” value was -0.345.

In the case of RRIRARPPRLPRPRPRPTVTPRP, the “shrunken log2 fold change” value was found to be 0.707.

Take RRIRCRPPRLPRPRPRPRMRPRP: the “shrunken log2 fold change” value was 0.542.

Consider RRIRVRPPRLPRPRPRPQWNPRP, for which the “shrunken log2 fold change” value was -0.386.

On to RRIRCRPPRLPRPRPRPDCFPRP, for which the “shrunken log2 fold change” value was 0.182.

As for RRIRRRPPRLPRPRPRPVEDPRP, the “shrunken log2 fold change” value worked out at 0.355.

Regarding RRIRKRPPRLPRPRPRPVKMPRP, the “shrunken log2 fold change” value was determined as 0.0491.

RRIRKRPPRLPRPRPRPSCPPRP: the “shrunken log2 fold change” value is -0.0238.

RRIRRRPPRLPRPRPRPFISPRP: the “shrunken log2 fold change” value worked out at 0.0236.

As to RRIRYRPPRLPRPRPRPVFWPRP, the “shrunken log2 fold change” value was 0.11.

For the sequence RRIRNRPPRLPRPRPRPFWMPRP, the “shrunken log2 fold change” value is -0.112.

With RRIRVRPPRLPRPRPRPREMPRP, the “shrunken log2 fold change” value came to 0.0631.

Consider RRIRFRPPRLPRPRPRPYDNPRP, for which the “shrunken log2 fold change” value was -0.775.

As for RRIRDRPPRLPRPRPRPGYVPRP, the “shrunken log2 fold change” value was -0.153.

As to RRIRNRPPRLPRPRPRPDCHPRP, the “shrunken log2 fold change” value came out at 0.081.

Turning to RRIRCRPPRLPRPRPRPEQCPRP, the “shrunken log2 fold change” value was 0.237.

Take RRIRLRPPRLPRPRPRPVVTPRP: the “shrunken log2 fold change” value was -0.0571.

As for RRIRGRPPRLPRPRPRPPAGPRP, the “shrunken log2 fold change” value turned out to be 1.37.

RRIRVRPPRLPRPRPRPGDEPRP: the “shrunken log2 fold change” value came out at 0.122.

On to RRIRDRPPRLPRPRPRPCEMPRP, for which the “shrunken log2 fold change” value turned out to be 0.63.

Take RRIRGRPPRLPRPRPRPVHYPRP: the “shrunken log2 fold change” value is 0.109.

Regarding RRIRFRPPRLPRPRPRPQCSPRP, the “shrunken log2 fold change” value came out at 0.0505.

Take RRIRLRPPRLPRPRPRPFFNPRP: the “shrunken log2 fold change” value is -0.359.

Consider RRIRMRPPRLPRPRPRPQPMPRP, for which the “shrunken log2 fold change” value stood at 0.838.

For RRIRNRPPRLPRPRPRPFMMPRP, the “shrunken log2 fold change” value was -0.181.

For RRIRVRPPRLPRPRPRPSKNPRP, the “shrunken log2 fold change” value was -0.364.

RRIRKRPPRLPRPRPRPYEPPRP: the “shrunken log2 fold change” value is -0.243.

Turning to RRIRARPPRLPRPRPRPSSFPRP, the “shrunken log2 fold change” value is -0.196.

As for RRIRRRPPRLPRPRPRPNMPPRP, the “shrunken log2 fold change” value was -0.342.

For RRIRYRPPRLPRPRPRPSEGPRP, the “shrunken log2 fold change” value was 0.0169.

In the case of RRIRGRPPRLPRPRPRPWWRPRP, the “shrunken log2 fold change” value is 0.626.

RRIRNRPPRLPRPRPRPSWTPRP: the “shrunken log2 fold change” value is -0.211.

With RRIRCRPPRLPRPRPRPCQPPRP, the “shrunken log2 fold change” value is -0.149.

On to RRIRERPPRLPRPRPRPNINPRP, for which the “shrunken log2 fold change” value is -1.05.

On to RRIRLRPPRLPRPRPRPLVHPRP, for which the “shrunken log2 fold change” value is -0.0413.

Take RRIRSRPPRLPRPRPRPECMPRP: the “shrunken log2 fold change” value worked out at 0.00574.

Regarding RRIRTRPPRLPRPRPRPMRWPRP, the “shrunken log2 fold change” value came to 0.313.

In the case of RRIRSRPPRLPRPRPRPVCWPRP, the “shrunken log2 fold change” value came out at 0.714.

Regarding RRIRTRPPRLPRPRPRPDYYPRP, the “shrunken log2 fold change” value was -0.356.

Regarding RRIRNRPPRLPRPRPRPASWPRP, the “shrunken log2 fold change” value amounted to 0.369.

As for RRIRRRPPRLPRPRPRPHHKPRP, the “shrunken log2 fold change” value is -0.0355.

Turning to RRIRMRPPRLPRPRPRPYRMPRP, the “shrunken log2 fold change” value is -0.219.

With RRIRHRPPRLPRPRPRPNGWPRP, the “shrunken log2 fold change” value turned out to be 0.42.

In the case of RRIRGRPPRLPRPRPRPKTNPRP, the “shrunken log2 fold change” value was determined as 0.779.

For RRIRWRPPRLPRPRPRPICPPRP, the “shrunken log2 fold change” value is -0.0872.

On to RRIRIRPPRLPRPRPRPADDPRP, for which the “shrunken log2 fold change” value is -0.062.

Take RRIRERPPRLPRPRPRPRACPRP: the “shrunken log2 fold change” value worked out at 0.177.

RRIRCRPPRLPRPRPRPTFTPRP: the “shrunken log2 fold change” value was -0.416.

RRIRWRPPRLPRPRPRPSVLPRP: the “shrunken log2 fold change” value is -0.225.

For RRIRWRPPRLPRPRPRPTKTPRP, the “shrunken log2 fold change” value is 0.0481.

On to RRIRQRPPRLPRPRPRPRRWPRP, for which the “shrunken log2 fold change” value is 0.326.

RRIRWRPPRLPRPRPRPGRTPRP: the “shrunken log2 fold change” value turned out to be 0.0519.

Take RRIRHRPPRLPRPRPRPANHPRP: the “shrunken log2 fold change” value was -0.262.

RRIRERPPRLPRPRPRPMNQPRP: the “shrunken log2 fold change” value was -0.67.

Take RRIRMRPPRLPRPRPRPRCIPRP: the “shrunken log2 fold change” value was -0.0309.

Regarding RRIRNRPPRLPRPRPRPITQPRP, the “shrunken log2 fold change” value is -0.187.

Turning to RRIRWRPPRLPRPRPRPWWYPRP, the “shrunken log2 fold change” value was -0.203.

The values above are taken from the supplement of paper PMC9112550, “Optimization of the antimicrobial peptide Bac7 by deep mutational scanning” (BMC Biology, 2022).
